Like-named read-outs stand apart in the source and are kept apart here.
Legend:
Kir1.1 channel (human) [1] = molecular target: Kir1.1 channel (human) (UniProt P48048)
Kir4.1 channel (human) [2] = molecular target: Kir4.1 channel (human) (UniProt P78508)
Kir1.1 channel (human) [3] = molecular target: Kir1.1 channel (human) (UniProt P48048); remark: listed apart in the source
Kir4.1 channel (human) [4] = molecular target: Kir4.1 channel (human) (UniProt P78508); remark: listed apart in the source

Chain of UniProt P48048 (P48048 whole entry): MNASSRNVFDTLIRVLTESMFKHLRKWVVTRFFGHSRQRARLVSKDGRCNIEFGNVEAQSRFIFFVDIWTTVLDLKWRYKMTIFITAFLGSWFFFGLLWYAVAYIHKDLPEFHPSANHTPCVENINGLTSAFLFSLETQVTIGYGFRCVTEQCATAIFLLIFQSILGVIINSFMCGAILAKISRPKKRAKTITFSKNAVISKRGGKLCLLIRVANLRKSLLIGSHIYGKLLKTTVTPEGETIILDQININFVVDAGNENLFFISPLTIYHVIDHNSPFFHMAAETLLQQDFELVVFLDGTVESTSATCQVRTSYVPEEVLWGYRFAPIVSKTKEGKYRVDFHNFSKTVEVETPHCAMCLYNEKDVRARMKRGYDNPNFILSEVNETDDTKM
Chain of UniProt P78508 (P78508 whole entry): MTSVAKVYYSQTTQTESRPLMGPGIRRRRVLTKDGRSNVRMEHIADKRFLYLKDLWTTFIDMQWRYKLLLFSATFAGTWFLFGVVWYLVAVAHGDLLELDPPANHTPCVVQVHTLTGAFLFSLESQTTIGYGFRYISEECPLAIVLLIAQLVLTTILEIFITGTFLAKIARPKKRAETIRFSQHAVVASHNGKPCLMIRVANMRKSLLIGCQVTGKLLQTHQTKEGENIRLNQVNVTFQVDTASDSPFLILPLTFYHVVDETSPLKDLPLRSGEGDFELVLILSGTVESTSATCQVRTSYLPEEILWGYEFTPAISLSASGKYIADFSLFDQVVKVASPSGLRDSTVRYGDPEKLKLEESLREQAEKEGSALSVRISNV

Substance	IC50 of inhibition of Kir1.1 currents at −40 mV, whole-cell patch clamp, HEK293T (Kir1.1 channel (human) [1])	IC50 of inhibition of Kir4.1 currents at −40 mV, whole-cell patch clamp, HEK293T (Kir4.1 channel (human) [2])	IC50 of inhibition of Kir1.1 currents at −40 mV, whole-cell patch clamp, HEK293T (Kir1.1 channel (human) [3])	IC50 of inhibition of Kir4.1 currents at −40 mV, whole-cell patch clamp, HEK293T (Kir4.1 channel (human) [4])
recombinant SsTx-4 (peptide)	60.4 nM	5600 nM	–	–
native SsTx-4 (peptide)	–	–	210 nM	6200 nM
